Measured values from US20150203577A1 (Chugai, published 2015).
Positions count from the first letter of the chain named.

B1: MB748 (antibody, mouse IgG1, kappa)
heavy: QVQLQESGPGLVKPSETLSLTCAVSGHSISHDHAWSWVRQPPGEGLEWIGFISYSGITNYNPSLQGRVTISRDNSKNTLYLQMNSLRAEDTAVYYCARSLARTTAMDYWGEGTLVTVSSAKTTPPSVYPLAPGSAAQTNSMVTLGCLVKGYFPEPVTVTWNSGSLSSGVHTFPAVLQSDLYTLSSSVTVPSSTWPSETVTCNVAHPASSTKVDKKIVPRDCGCKPCICEPNEVELVFIFPPKPKDVLTITLTPKVTCVVVDIAKDDPEVQFSWFVDDVEVHTAQTQPREEQFNSTFRSVSELPIMHQDWLNGKEFKCRVNSAAFPAPIEKTISKTKGRPKAPQVYTIPPPKEQMAKDKVSLTCMITDFFPEDITVEWQWNGQPAENYKNTQPIMDTDGSYFVYSKLNVQKSNWEAGNTFTCSVLHEGLHNHHTEKSLSHSPGK
light: not shown
notes: CH name; VH H237 + CH, L chain MRAL-k0; copies: 2 + 2
B2: MB749 (antibody, mouse IgG1, kappa)
heavy: B1 heavy with A263S, Q291L
light: not shown
notes: as for B1
B3: MB751 (antibody, mouse IgG1, kappa)
heavy: B1 heavy with A263S, K330R
light: not shown
notes: as for B1
B4: MB752 (antibody, mouse IgG1, kappa)
heavy: B1 heavy with A263S, S294L
light: not shown
notes: as for B1
B5: MB753 (antibody, mouse IgG1, kappa)
heavy: B1 heavy with A263S, S294M
light: not shown
notes: as for B1
B6: MB754 (antibody, mouse IgG1, kappa)
heavy: B1 heavy with A263S, N320D
light: not shown
notes: as for B1
B7: MB755 (antibody, mouse IgG1, kappa)
heavy: B1 heavy with A263S, S294L, N320D
light: not shown
notes: as for B1
B8: MB756 (antibody, mouse IgG1, kappa)
heavy: B1 heavy with A263S, S294L, K330R
light: not shown
notes: as for B1
B9: MB757 (antibody, mouse IgG1, kappa)
heavy: B1 heavy with A263S, S294M, N320D
light: not shown
notes: as for B1
B10: MB758 (antibody, mouse IgG1, kappa)
heavy: B1 heavy with A263S, S294M, K330R
light: not shown
notes: as for B1
B11: MB759 (antibody, mouse IgG1, kappa)
heavy: B1 heavy with A263S, N320D, K330R
light: not shown
notes: as for B1
B12: MB760 (antibody, mouse IgG1, kappa)
heavy: B1 heavy with A263S, S294L, N320D, K330R
light: not shown
notes: as for B1
B13: MB761 (antibody, mouse IgG1, kappa)
heavy: B1 heavy with A263S, S294M, N320D, K330R
light: not shown
notes: as for B1
B14: MB762 (antibody, mouse IgG1, kappa)
heavy: B1 heavy with A263S, F292E
light: not shown
notes: as for B1
B15: MB763 (antibody, mouse IgG1, kappa)
heavy: B1 heavy with A263S, F292N
light: not shown
notes: as for B1
B16: MB764 (antibody, mouse IgG1, kappa)
heavy: B1 heavy with A263S, F292T
light: not shown
notes: as for B1
B17: MB765 (antibody, mouse IgG1, kappa)
heavy: B1 heavy with A263S, N320L
light: not shown
notes: as for B1
B18: MB766 (antibody, mouse IgG1, kappa)
heavy: B1 heavy with A263S, N320M
light: not shown
notes: as for B1
B19: MB767 (antibody, mouse IgG1, kappa)
heavy: B1 heavy with A263S, A326G
light: not shown
notes: as for B1
B20: MB768 (antibody, mouse IgG1, kappa)
heavy: B1 heavy with A263S, A326Q
light: not shown
notes: as for B1
B21: MB769 (antibody, mouse IgG1, kappa)
heavy: B1 heavy with A263S, P327D
light: not shown
notes: as for B1
B22: MB770 (antibody, mouse IgG1, kappa)
heavy: B1 heavy with A263S, P327F
light: not shown
notes: as for B1
B23: MB771 (antibody, mouse IgG1, kappa)
heavy: B1 heavy with A263S, P327Y
light: not shown
notes: as for B1
B24: MB772 (antibody, mouse IgG1, kappa)
heavy: B1 heavy with A263S, E329N
light: not shown
notes: as for B1

Target: T1, mouse FcγRIII (mouse, UniProt P08508 31-215)
T1 construct: Extracellular domain with C-terminal His tag; also called mFcγRIII; mFcgRIII
T1 chain: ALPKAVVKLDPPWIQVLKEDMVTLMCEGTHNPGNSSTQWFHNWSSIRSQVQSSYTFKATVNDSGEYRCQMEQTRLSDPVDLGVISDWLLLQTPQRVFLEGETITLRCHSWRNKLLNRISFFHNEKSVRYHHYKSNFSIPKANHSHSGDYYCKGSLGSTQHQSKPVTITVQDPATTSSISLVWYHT
Assay: SPR (Biacore T200); KD of H237-mIgG1/MRAL-k0 / KD of variant
Source text: (§1) The antibody H chain variable region used was the variable region H237 (SEQ ID NO: 1) of the H chain VH3-IgG1 of the anti-IL-6 receptor antibody Fv4-IgG1 described in WO2009/125825. The antibody L chain commonly used was the L chain MRAL-k0 (SEQ ID NO: 2) of the anti-IL-6 receptor antibody tocilizumab. […] These variants were expressed and purified by the method of Reference Example 1 and evaluated for their binding to mFcγRII and mFcγRIII by the method of Reference Example 2 using Biacore T200.
(§2) Each altered antibody was analyzed for its interaction with each Fcγ receptor prepared above using Biacore T100 (GE Healthcare Japan Corp.), Biacore T200 (GE Healthcare Japan Corp.), Biacore A100, or Biacore 4000. The running buffer used was HBS-EP+ (GE Healthcare Japan Corp.). The assay temperature was set to 25° C. The sensor chips used were chips prepared by immobilizing Protein L (ACTIGEN or BioVision) onto Series S Sensor Chip CM5 (GE Healthcare Japan Corp.) or Series S Sensor Chip CM4 (GE Healthcare Japan Corp.) by the amine coupling method.

Going from B1 to B2, the “relative mFcγRIII-binding activity (mIgG1 = 1)” value rises from 0.14 fold to 0.38 fold.

Compared with B3, B4 is lower in “relative mFcγRIII-binding activity (mIgG1 = 1)” value: 0.32 fold for the first, 0.09 fold for the second.

Compared with B5, B6 is higher in “relative mFcγRIII-binding activity (mIgG1 = 1)” value: 0.07 fold for the first, 0.25 fold for the second.

Going from B7 to B8, the “relative mFcγRIII-binding activity (mIgG1 = 1)” value rises from 0.11 fold to 0.21 fold.

Compared with B9, B10 is higher in “relative mFcγRIII-binding activity (mIgG1 = 1)” value: 0.09 fold for the first, 0.13 fold for the second.

First: B11
Second: B12
The “relative mFcγRIII-binding activity (mIgG1 = 1)” value of the first is higher: 0.44 fold for the first, 0.28 fold for the second.

Compared with B13, B14 is lower in “relative mFcγRIII-binding activity (mIgG1 = 1)” value: 0.18 fold for the first, 0.09 fold for the second.

First: B15
Second: B16
The “relative mFcγRIII-binding activity (mIgG1 = 1)” value of the first is higher: 0.07 fold for the first, 0.05 fold for the second.

Compared with B17, B18 is higher in “relative mFcγRIII-binding activity (mIgG1 = 1)” value: 0.11 fold for the first, 0.27 fold for the second.

Going from B19 to B20, the “relative mFcγRIII-binding activity (mIgG1 = 1)” value rises from 0.03 fold to 0.14 fold.

First: B21
Second: B22
The “relative mFcγRIII-binding activity (mIgG1 = 1)” value of the first is lower: 0.06 fold for the first, 0.24 fold for the second.

Compared with B23, B24 is lower in “relative mFcγRIII-binding activity (mIgG1 = 1)” value: 0.26 fold for the first, 0.07 fold for the second.

The binders below were run against T2, mouse FcγRII (mouse, UniProt P08101 30-210) in the same assay as above.
T2 construct: Extracellular domain with C-terminal His tag; also called mFcγRII; mFcgRII
T2 sequence: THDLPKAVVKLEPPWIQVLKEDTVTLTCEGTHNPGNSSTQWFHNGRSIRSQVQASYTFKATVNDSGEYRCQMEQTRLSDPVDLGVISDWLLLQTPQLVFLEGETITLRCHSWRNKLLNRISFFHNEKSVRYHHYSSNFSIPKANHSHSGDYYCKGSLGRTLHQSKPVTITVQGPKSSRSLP
Source text: as §1, §2

First: B1
Second: B2
The “relative mFcγRII-binding activity (mIgG1 = 1)” value of the first is lower: 11.7 fold for the first, 25.3 fold for the second.

First: B3
Second: B4
The “relative mFcγRII-binding activity (mIgG1 = 1)” value of the first is higher: 25.4 fold for the first, 6 fold for the second.

Compared with B5, B6 is higher in “relative mFcγRII-binding activity (mIgG1 = 1)” value: 5.7 fold for the first, 21 fold for the second.

Compared with B7, B8 is higher in “relative mFcγRII-binding activity (mIgG1 = 1)” value: 7.6 fold for the first, 10.6 fold for the second.

First: B9
Second: B10
The “relative mFcγRII-binding activity (mIgG1 = 1)” value of the first is lower: 7.6 fold for the first, 9.8 fold for the second.

Going from B11 to B12, the “relative mFcγRII-binding activity (mIgG1 = 1)” value falls from 33.8 fold to 14.1 fold.

Compared with B13, B14 is lower in “relative mFcγRII-binding activity (mIgG1 = 1)” value: 13.4 fold for the first, 4.4 fold for the second.

Compared with B15, B16 is lower in “relative mFcγRII-binding activity (mIgG1 = 1)” value: 3.4 fold for the first, 2.5 fold for the second.

Going from B17 to B18, the “relative mFcγRII-binding activity (mIgG1 = 1)” value rises from 5.3 fold to 14 fold.

First: B19
Second: B20
The “relative mFcγRII-binding activity (mIgG1 = 1)” value of the first is lower: 1.8 fold for the first, 5.4 fold for the second.

Compared with B21, B22 is higher in “relative mFcγRII-binding activity (mIgG1 = 1)” value: 3.3 fold for the first, 13.3 fold for the second.

First: B23
Second: B24
The “relative mFcγRII-binding activity (mIgG1 = 1)” value of the first is higher: 13.8 fold for the first, 3.5 fold for the second.

Target: T1, mouse FcγRIII
Assay: SPR (Biacore T200); KD of H237-MB630/MRAL-k0 / KD of variant
Source text: as §1, §2
(§3) In order to calculate the KD value of each altered antibody for FcγR, kinetic analysis was conducted according to the following method: first, the antibody of interest was captured onto any of these chips and allowed to interact with mFcγR diluted with a running buffer. For the obtained sensorgram, the assay results were globally fit into the 1:1 Langmuir binding model using Biacore Evaluation Software to calculate an association rate constant ka (L/mol/s) and a dissociation rate constant kd (1/s). From these values, the dissociation constant KD (mol/L) was calculated.

First: B1
Second: B2
The “Relative mFcγRIII-binding activity (MB630 = 1)” value of the first is lower: 0.7 fold for the first, 1.96 fold for the second.

Compared with B3, B4 is lower in “Relative mFcγRIII-binding activity (MB630 = 1)” value: 1.63 fold for the first, 0.44 fold for the second.

Compared with B5, B6 is higher in “Relative mFcγRIII-binding activity (MB630 = 1)” value: 0.34 fold for the first, 1.28 fold for the second.

First: B7
Second: B8
The “Relative mFcγRIII-binding activity (MB630 = 1)” value of the first is lower: 0.58 fold for the first, 1.09 fold for the second.

First: B9
Second: B10
The “Relative mFcγRIII-binding activity (MB630 = 1)” value of the first is lower: 0.45 fold for the first, 0.69 fold for the second.

Compared with B11, B12 is lower in “Relative mFcγRIII-binding activity (MB630 = 1)” value: 2.25 fold for the first, 1.42 fold for the second.

First: B13
Second: B14
The “Relative mFcγRIII-binding activity (MB630 = 1)” value of the first is higher: 0.92 fold for the first, 0.51 fold for the second.

Compared with B15, B16 is lower in “Relative mFcγRIII-binding activity (MB630 = 1)” value: 0.41 fold for the first, 0.32 fold for the second.

Compared with B17, B18 is higher in “Relative mFcγRIII-binding activity (MB630 = 1)” value: 0.64 fold for the first, 1.55 fold for the second.

Going from B19 to B20, the “Relative mFcγRIII-binding activity (MB630 = 1)” value rises from 0.19 fold to 0.81 fold.

Compared with B21, B22 is higher in “Relative mFcγRIII-binding activity (MB630 = 1)” value: 0.38 fold for the first, 1.4 fold for the second.

Compared with B23, B24 is lower in “Relative mFcγRIII-binding activity (MB630 = 1)” value: 1.53 fold for the first, 0.42 fold for the second.

What follows are binders tested against T2, mouse FcγRII in the same assay as above.
Source text: as §1, §2, §3

Compared with B1, B2 is higher in “Relative mFcγRII-binding activity (MB630 = 1)” value: 0.7 fold for the first, 1.52 fold for the second.

Going from B3 to B4, the “Relative mFcγRII-binding activity (MB630 = 1)” value falls from 1.53 fold to 0.36 fold.

First: B5
Second: B6
The “Relative mFcγRII-binding activity (MB630 = 1)” value of the first is lower: 0.34 fold for the first, 1.26 fold for the second.

Going from B7 to B8, the “Relative mFcγRII-binding activity (MB630 = 1)” value rises from 0.45 fold to 0.64 fold.

Compared with B9, B10 is higher in “Relative mFcγRII-binding activity (MB630 = 1)” value: 0.46 fold for the first, 0.59 fold for the second.

Compared with B11, B12 is lower in “Relative mFcγRII-binding activity (MB630 = 1)” value: 2.03 fold for the first, 0.85 fold for the second.

Compared with B13, B14 is lower in “Relative mFcγRII-binding activity (MB630 = 1)” value: 0.81 fold for the first, 0.4 fold for the second.

Going from B15 to B16, the “Relative mFcγRII-binding activity (MB630 = 1)” value falls from 0.31 fold to 0.23 fold.

Compared with B17, B18 is higher in “Relative mFcγRII-binding activity (MB630 = 1)” value: 0.49 fold for the first, 1.29 fold for the second.

First: B19
Second: B20
The “Relative mFcγRII-binding activity (MB630 = 1)” value of the first is lower: 0.16 fold for the first, 0.5 fold for the second.

Going from B21 to B22, the “Relative mFcγRII-binding activity (MB630 = 1)” value rises from 0.31 fold to 1.23 fold.

Compared with B23, B24 is lower in “Relative mFcγRII-binding activity (MB630 = 1)” value: 1.27 fold for the first, 0.32 fold for the second.
